How the values were obtained:
BSA [1] = molecular target: T1, BSA (Bos taurus, UniProt P02769); assay: Binding to BSA by fluorescence quenching of albumin tryptophan; conditions: double logarithmic plot (Eq. 6), less than 1 mol/mol dye to albumin
[2] = assay type: in vivo, mouse; conditions: for change in kurtosis over time after injection: mouse ear, LS224 over 6 h, LS296 within 3 h
BSA [3] = molecular target: T1, BSA

T1 sequence (P02769 25-607): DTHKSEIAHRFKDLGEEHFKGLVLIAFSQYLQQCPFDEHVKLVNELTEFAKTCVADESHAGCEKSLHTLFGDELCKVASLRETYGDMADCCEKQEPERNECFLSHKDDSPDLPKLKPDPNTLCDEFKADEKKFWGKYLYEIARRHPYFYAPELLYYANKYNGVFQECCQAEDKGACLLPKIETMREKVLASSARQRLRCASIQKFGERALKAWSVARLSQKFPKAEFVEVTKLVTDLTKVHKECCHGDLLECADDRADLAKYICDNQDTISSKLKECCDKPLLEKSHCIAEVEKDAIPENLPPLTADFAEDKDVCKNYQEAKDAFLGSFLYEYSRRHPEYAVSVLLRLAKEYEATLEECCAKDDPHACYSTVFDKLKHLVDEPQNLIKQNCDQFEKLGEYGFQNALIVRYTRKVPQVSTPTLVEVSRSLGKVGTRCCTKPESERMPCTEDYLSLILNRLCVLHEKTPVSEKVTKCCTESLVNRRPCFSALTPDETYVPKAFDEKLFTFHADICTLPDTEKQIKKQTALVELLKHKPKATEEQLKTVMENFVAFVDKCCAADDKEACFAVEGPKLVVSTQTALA

| Molecule | change in kurtosis over time after injection ([2]; ex/em 780/800 nm) | K, M^−1 (binding constants to BSA in PBS buffer) (BSA [3]) | also measured |
| --- | --- | --- | --- |
| CC1(C)C(/C=C/C=C/C=C/C=C2\N(CCCCS(=O)(=O)O)c3ccc4ccccc4c3C2(C)C)=[N+](CCCCS(=O)(=O)[O-])c2ccc3ccccc3c21 [ICG, indocyanine green] | – | – | number of binding sites n on albumin (BSA [1]): 1.012 ± 0.0212 |
| CC1(C)C(=CC=C2CCCC(C=CC3=[N+](CCCCCC(=O)[O-])c4ccc(S(=O)(=O)[O-])cc4C3(C)C)=C2Oc2ccc(S(=O)(=O)[O-])cc2)N(CCCCS(=O)(=O)[O-])c2ccc(S(=O)(=O)[O-])cc21.[Na+].[Na+].[Na+].[Na+] [IRdye800CW, reference compound] | – | – | initial kurtosis value at the first time point ([2]; mouse ear ROI, 2 min after injection): less than 1; time of peak fluorescence intensity in ROI after injection ([2]; mouse ear ROI, intravenous injection, ex/em 780/800 nm): 20 to 30 min; binding constant K to BSA (BSA [3]): ~6,100 M^−1 |
| Cypate-DPhe-Cyclo(Cys-Tyr-DTrp-Lys-Thr-Cys)-Thr-OH (disulfide) [LS224] | no changes in kurtosis | 51,000 M^−1 | – |
| Cypate-Gly-Arg-Asp-Ser-Pro-Lys-OH [LS39] | – | 76,000 M^−1 | – |
| LS276-DPhe-Cyclo(Cys-Tyr-DTrp-Lys-Thr- Cys)-Thr-OH (disulfide) [LS296] | dramatic changes | 14,880 M^−1 | – |

From publication PMC3068226 (Biochemistry, 2011)
